Read-outs that look alike come from different tables or passages of the source. Positions of bridges follow the written chain, without caps; N, C: chain ends. No end group written: not given here.
Assays:
RMA-T lymphoma = assay type: in vivo, mice
Protocol: RMA-T tumor-bearing mice (6 per group) were treated 11 days after tumor implantation with 100 pg of S-NGR-hTNF (i.p.). Two hours later, the mice were injected (i.p.) with 50 µg of melphalan (generic preparation of melphalan, Tillomed).
B) Kaplan-Maier curves of vehicle, melphalan alone and in combination with S-NGR-hTNF.
C) Animal body weight change (mean ± SE, 6 mice per group). Arrows: pharmacological treatment.
Inventors have shown previously that low-dose murine S-NGR-TNF (100 pg) can enhance the antitumor activity of melphalan, an anticancer alkylating agent, in a murine lymphoma model (Corti et al., 2020). To assess whether S-NGR-hTNF can also synergize with melphalan, inventors performed similar experiments using the RMA-T lymphoma model. As expected, administration of melphalan (50 µg) in combination with S-NGR-hTNF (100 pg) induced stronger antitumor effects than melphalan alone (FIGS. 21A-B).

[1] = buffer; cited from earlier work
αvβ3 = αvβ3 (Homo sapiens, UniProt P05106+P06756); details: cited from earlier work
Chain of αvβ3 (P06756 31-889 limits assumed): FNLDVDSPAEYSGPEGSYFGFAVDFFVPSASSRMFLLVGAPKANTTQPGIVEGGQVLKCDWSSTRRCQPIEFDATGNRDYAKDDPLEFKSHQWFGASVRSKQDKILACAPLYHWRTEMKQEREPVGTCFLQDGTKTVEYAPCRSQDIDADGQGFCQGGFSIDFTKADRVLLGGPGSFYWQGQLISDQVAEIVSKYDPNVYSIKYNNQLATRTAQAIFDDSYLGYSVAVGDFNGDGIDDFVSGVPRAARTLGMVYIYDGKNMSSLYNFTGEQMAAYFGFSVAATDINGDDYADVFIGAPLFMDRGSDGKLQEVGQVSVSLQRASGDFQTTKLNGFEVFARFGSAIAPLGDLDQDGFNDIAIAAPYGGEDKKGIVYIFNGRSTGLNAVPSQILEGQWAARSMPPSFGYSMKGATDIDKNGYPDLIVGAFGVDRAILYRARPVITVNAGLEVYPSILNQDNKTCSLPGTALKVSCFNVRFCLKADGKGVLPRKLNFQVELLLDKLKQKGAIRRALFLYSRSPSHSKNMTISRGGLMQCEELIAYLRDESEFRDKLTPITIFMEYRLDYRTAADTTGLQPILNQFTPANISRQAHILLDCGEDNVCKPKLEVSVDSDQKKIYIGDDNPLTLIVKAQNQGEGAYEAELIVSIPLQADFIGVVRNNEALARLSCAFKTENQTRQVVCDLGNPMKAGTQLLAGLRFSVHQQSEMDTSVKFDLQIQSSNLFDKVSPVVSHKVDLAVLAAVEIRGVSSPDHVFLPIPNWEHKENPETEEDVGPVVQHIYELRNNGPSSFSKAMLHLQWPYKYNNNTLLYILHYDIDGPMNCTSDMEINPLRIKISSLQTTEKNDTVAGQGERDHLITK
Chain of αvβ3 (P06756 891-1048 partner limits assumed): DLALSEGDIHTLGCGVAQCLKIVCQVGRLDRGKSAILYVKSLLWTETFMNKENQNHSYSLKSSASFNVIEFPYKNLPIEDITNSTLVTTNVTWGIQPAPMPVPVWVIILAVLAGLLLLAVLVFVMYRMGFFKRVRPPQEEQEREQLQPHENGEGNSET
Chain of αvβ3 (P05106 27-788): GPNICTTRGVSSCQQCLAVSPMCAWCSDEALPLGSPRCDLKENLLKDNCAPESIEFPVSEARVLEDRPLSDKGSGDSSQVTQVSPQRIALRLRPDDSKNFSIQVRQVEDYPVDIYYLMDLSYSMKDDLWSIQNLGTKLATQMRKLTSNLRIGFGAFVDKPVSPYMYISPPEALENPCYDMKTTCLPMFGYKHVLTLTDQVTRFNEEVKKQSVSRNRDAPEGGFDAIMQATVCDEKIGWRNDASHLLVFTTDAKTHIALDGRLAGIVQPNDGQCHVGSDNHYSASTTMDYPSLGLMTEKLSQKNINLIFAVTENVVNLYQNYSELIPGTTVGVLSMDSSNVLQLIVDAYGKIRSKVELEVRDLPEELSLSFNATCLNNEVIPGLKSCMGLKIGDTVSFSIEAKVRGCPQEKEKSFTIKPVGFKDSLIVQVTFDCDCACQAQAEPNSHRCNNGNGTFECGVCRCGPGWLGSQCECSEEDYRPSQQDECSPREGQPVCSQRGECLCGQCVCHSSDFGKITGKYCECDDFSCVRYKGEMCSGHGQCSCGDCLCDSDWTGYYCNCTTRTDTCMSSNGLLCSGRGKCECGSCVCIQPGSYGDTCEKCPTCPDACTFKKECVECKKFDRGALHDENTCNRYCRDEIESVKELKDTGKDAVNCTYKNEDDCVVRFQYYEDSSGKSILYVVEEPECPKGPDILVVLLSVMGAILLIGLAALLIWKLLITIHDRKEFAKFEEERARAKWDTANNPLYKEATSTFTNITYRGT

[2] = system: malignant pleural mesothelioma (MPM); details: cited from earlier work
[3] = system: primary central nervous system lymphoma (PCNSL); details: with R-CHOP; cited from earlier work
L-M cells = assay: LM-cells cytolytic assay (MTT); assay type: cell-based; details: actinomycin D, 20 h, murine proteins
Source text: FIG. 8. Biochemical and biological characterization of murine S-NGR-TNF and NGR-TNF. A) SDS-PAGE under reducing (βMe +) and non-reducing conditions (βMe -) of murine S-NGR-TNF, NGR-TNF and TNF. Arrows: bands corresponding to monomeric subunits (mon) and reducible dimers (dim). B) Representative mass spectra of murine NGR-TNF, TNF and S-NGR-TNF as determined by a Q Exactive HF mass spectrometer. Expected average masses are shown. C) Cytotoxic activity of TNF, NGR-TNF and S-NGR-TNF against L-M cells. L-M cells were incubated in DMEM medium supplemented with 2 mM glutamine, 100 U/ml penicillin, 100 µg/ml streptomycin, 0.25 µg/ml amphotericin-B, 10% fetal bovine serum, 2 µg/ml actinomycin D and TNF, NGR-TNF or S-NGR-TNF at the indicated doses (20 h at 37° C., 5% CO2). Cell viability was quantified by standard 3-(4,5-dimethylthiazol-2-yl)-2,5-diphenyltetrazolium bromide (MTT) assay. D) Binding of TNF, NGR-TNF and S-NGR-TNF to sTNF-R1 (Etanercept). Microtiterplates were precoated with or without the indicated amount of sTNF-R1 (for 16 h), washed with PBS, blocked with PBS containing 3% milk, 1% BSA (binding buffer, 1 h) and incubated with the indicated amounts of TNF, NGR-TNF or S-NGR-TNF diluted in binding buffer (for 1.5 h). The binding of each protein to sTNF-R1 was then detected using a polyclonal anti-murine TNF (IP301, 5 µg/ml in binding buffer, 1 h) followed by a polyclonal goat anti-rabbit antibody conjugated with horseradish peroxidase (1:1000 in binding buffer, 1 h) and o-phenylendiammine as chromogenic substrate.
To assess whether the addition of a serine residue to NGR-TNF affects its capability to recognize the TNF receptors and, consequently, its biological activity, inventors then analyzed the cytotoxic activity of TNF, NGR-TNF and S-NGR-TNF in the LM-cells cytolytic assay.

[4] = system: endothelial EA.hy926 cells; assay: EA.hy926 endothelial cell adhesion assay on protein-coated microtiterplates; assay type: cell-based; details: plates coated in PBS, no forced deamidation
Protocol: FIG. 12. […] A) Adhesion of endothelial EA.hy926 cells to 96-wells microtiterplates coated with different amounts of murine TNF, NGR-TNF and S-NGR-TNF in 150 mM sodium chloride, 50 mM sodium phosphate buffer, pH 7.4 (PBS) (16 h). Each well was blocked with 2% BSA in PBS containing calcium chloride and magnesium chloride (DPBS, 30 min), seeded with 40.000 endothelial EA.hy926 cells in DPBS supplemented with 0.1% BSA (DPBS-B), and left to incubate for 2 h at 37° C., 5% CO2. After washing with DMEM-B, adherent cells were stained with crystal violet and quantified by spectrophotometric measurements at 570 nm. B) Microtiterplates pre-coated with 1 µg/ml of murine NGR-TNF or S-NGR-TNF in PBS (for 16 h) were incubated 0.1 M ammonium bicarbonate buffer, pH 8.5 (Ambic) at 37° C. for the indicated time to promote NGR deamidation. EA.hy926 cell adhesion assay was then performed as described above.
This behavior likely reflects a further improvement in the CNGRCG (SEQ ID NO: 1) stability when fused to TNF.

RMA lymphoma = assay type: in vivo, mice; details: 100 pg i.p., melphalan two hours later
Protocol: FIG. 15. […] C57BL/6 mice (6-7 weeks old, weighing 18-20 g) were challenged with subcutaneous injection in the left flank of 7×10^4 RMA cells. Mice bearing RMA lymphomas (6 per group) were treated 10-11 days (after tumor implantation with 100 pg of murine NGR-TNF or S-NGR-TNF (i.p.). Two hours later, the mice were injected with the indicated dose of melphalan (i.p.). All proteins were diluted with 0.9% sodium chloride, containing 100 µg/ml endotoxin-free human albumin. Tumor growth was monitored daily by measuring the tumors with calipers. A-B) Tumor volume change of two independent experiments are shown (mean±SE). […] C) Tumor bearing-animals were treated at day 10 after tumor implantation as indicated above using the indicated dose of S-NGR-TNF and the generic preparation of melphalan (Melphalan-Tillomed, from Tillomed Italia). RMA tumor weight at day 20 are shown (mean±SE). *, P<0.05, **P<0.01 by unpaired t test analysis with the GraphPad Prism software.
Effect of melphalan alone or in combination with low-dose murine S-NGR-TNF on the body weight and tumor growth of RMA-T lymphoma-bearing mice. Six tumor-bearing mice were injected with the indicated doses of S-NGR-TNF (i.p) and, two hours later, with the generic preparation of melphalan (Melphalan-Tillomed) (i.p.).
Finally, to assess whether low-dose S-NGR-TNF can exert synergistic effects with chemotherapy, as previously observed for NGR-TNF, inventors performed in vivo experiments with S-NGR-TNF and NGR-TNF in combination with melphalan, a chemotherapeutic drug, using the murine RMA lymphoma model (FIG. 15).

WEHI-164 fibrosarcoma = assay: Low-dose treatment in subcutaneous WEHI-164 fibrosarcoma murine model; assay type: in vivo; details: 25 or 50 pg, i.p.
Protocol: FIG. 14. […] Balb/c mice (6-7 weeks old, weighing 18-20 g) were injected, s.c., with 1.5×10^6 WEHI-164 cells in the left flank and treated 5 days after tumor implantation (i.p.) with 25 or 50 pg of murine NGR-TNF or S-NGR-TNF in 0.9% sodium chloride, containing 100 µg/ml endotoxin-free human serum albumin (arrows). A) Tumor volumes after treatment (mean±SE, 6 mice per group). B) Tumor weight at day 15 (cumulative data of the two groups treated with 25 and 50 pg of drugs). *, P<0.05, **P<0.01 by unpaired t test of the area under the curve for each tumor (GraphPad Prism software).
To assess whether the addition of the Ser residue to NGR-TNF might affect its anti-tumor activity at low dose, inventors then analyzed the therapeutic activity of NGR-TNF and S-NGR-TNF (25 or 50 pg, i.p.) using the subcutaneous WEHI-164 fibrosarcoma murine model.

[5] = S-NGR-hTNF 100 pg in combination with melphalan 50 µg

For `N[C@@H](Cc1ccc(N(CCCl)CCCl)cc1)C(=O)O` [melphalan, reference compound], the median survival (RMA-T lymphoma; melphalan 50 µg alone) was ~28 days.

In the case of “CNGRC (SEQ ID NO:5) (disulfide 1-5 (inferred); listed as Homo sapiens)”, the deamidation half-life [1] is given as 4 to 5 h.

In the case of “CisoDGRC (SEQ ID NO:41) (isoaspartate; disulfide cyclized; MOD_RES (1)..(1) Ciso or acetyl-Ciso or iso) [deamidation product of CNGRC]”, the “affinity for αvβ3 greater than αvβ5, αvβ6, αvβ8, and α5β1” value (αvβ3) is listed as 10-100 fold.

For “S-NGR-hTNF: Human SCNGRCG-TNF fusion protein expressed in E. coli (SEQ ID NO:27/28)”, the median survival (RMA-T lymphoma; [5]) was 36.5 days and the “toxicity of melphalan, judged from loss of animal weight” value (RMA-T lymphoma; [5]) was “without increasing its toxicity”.

For “human NGR-TNF: CNGRCG fused to the human TNF sequence, tested in Phase II and III clinical studies”, the “disease control in previously treated patients” value ([2]; 0.8 µg/m^2, 1 h infusion) is listed as “about half”, the “duration of disease control” value ([2]; triweekly cohort) is listed as 4.4 months and the “duration of disease control” value ([2]; weekly cohort) is listed as 9.1 months. The complete responses [3] was 50% and the responses [3] was 75%.

B1: NGR-TNF: Murine CNGRCG-TNF fusion protein, conventional first-generation conjugate used as comparator (protein)
chain: CNGRCGLRSSSQNSSDKPVAHVVANHQVEEQLEWLSQRANALLANGMDLKDNQLVVPADGLYLVYSQVLFKGQGCPDYVLLTHTVSRFAISYQEKVNLLSAVKSPCPKDTPEGAELKPWYEPIYLGGVFQLEKGDQLSAEVNLPKYLDFAESGQVYFGVIAL
In the case of B1, the EC50 cytotoxic activity (L-M cells) is reported as “very similar”, the “EA.hy926 cell adhesion to coated plates” value [4] is reported as “cell adhesion was observed” and the “efficacy of melphalan in combination” value (RMA lymphoma) is reported as “could enhance the efficacy of melphalan”. For the same molecule, the toxicity (WEHI-164 fibrosarcoma) was “No evidence of toxicity” and the tumor growth (WEHI-164 fibrosarcoma) was “delayed tumor growth to similar extent”.
